# Measurements: patent US20050032186, “Regulatory zinc finger proteins” (published 2005)
# B1: VEGF-A -633R (9 bp) (dsDNA)
# DNA 1: GGGTGGGGG
# DNA 2: CCCCCACCC
# B2: VEGF-A -606 (dsDNA)
# DNA 1: GCCAGAGCCGGG
# DNA 2: CCCGGCTCTGGC
# B3: VEGF-A -633R (12 bp) (dsDNA)
# DNA 1: GGGTGGGGGGAG
# DNA 2: CTCCCCCCACCC
# B4: VEGF-A -395R (dsDNA)
# DNA 1: GGGGAGAGGGAC
# DNA 2: GTCCCTCTCCCC
# B5: VEGF-A -630R (dsDNA)
# DNA 1: AGGGGGTGGGGG
# DNA 2: CCCCCACCCCCT
# B6: VEGF-A -391R (12 bp) (dsDNA)
# DNA 1: GGGTGGGGAGAG
# DNA 2: CTCTCCCCACCC
# B7: VEGF-A -671 (dsDNA)
# DNA 1: GTCAGAAATAGG
# DNA 2: CCTATTTCTGAC
# B8: VEGF-A +244R (dsDNA)
# DNA 1: CAAGTGGGGAAT
# DNA 2: ATTCCCCACTTG
# B9: VEGF-A +434 (dsDNA)
# DNA 1: TGGGGGTGA
# DNA 2: TCACCCCCA
# B10: VEGF-A -680 (dsDNA)
# DNA 1: GTTTGGGAGGTC
# DNA 2: GACCTCCCAAAC
# B11: VEGF-A -455 (12 bp) (dsDNA)
# DNA 1: GAGCGGGGAGAA
# DNA 2: TTCTCCCCGCTC
# B12: VEGF-A -536 (dsDNA)
# DNA 1: GAGCGAGCAGCG
# DNA 2: CGCTGCTCGCTC
# B13: VEGF-A -206 (dsDNA)
# DNA 1: GGTGGGGGTCGA
# DNA 2: TCGACCCCCACC
# B14: VEGF-A -358R (dsDNA)
# DNA 1: GGGGCAGGGGAA
# DNA 2: TTCCCCTGCCCC
# B15: VEGF-A -455 (9 bp) (dsDNA)
# DNA 1: GAGCGGGGA
# DNA 2: TCCCCGCTC
# B16: VEGF-A -677 (dsDNA)
# DNA 1: TGGGAGGTCAGA
# DNA 2: TCTGACCTCCCA
# B17: VEGF-A -314R (dsDNA)
# DNA 1: GACAGGGCCTGA
# DNA 2: TCAGGCCCTGTC
# Key:
# F480 = F480 (artificial (human zinc finger domains)); experiment: cell_activity; endogenous VEGF-A conc., unit not given; parental vector 400
# F2615 = F2615 (artificial (human zinc finger domains)); experiment: as above; details: tags: HA, NLS, p65
# F2610 = F2610 (artificial (human zinc finger domains)); experiment: as above; details: tags: HA, NLS, p65
# F2634 = F2634 (artificial (human zinc finger domains)); experiment: as above; details: tags: HA, NLS, p65
# F2612 = F2612 (artificial (human zinc finger domains)); experiment: cell_activity; endogenous VEGF-A conc., unit inferred; parental vector 400; details: tags: HA, NLS, p65
# F2638 = F2638 (artificial (human zinc finger domains)); experiment: cell_activity; endogenous VEGF-A conc., unit not given; parental vector 400; details: tags: HA, NLS, p65
# F2607 = F2607 (artificial (human zinc finger domains)); experiment: cell_activity; endogenous VEGF-A conc., unit inferred; parental vector 400; details: tags: HA, NLS, p65
# F2679 = F2679 (artificial (human zinc finger domains)); experiment: as above; details: tags: HA, NLS, p65
# F121 = F121 (artificial (human zinc finger domains)); experiment: as above
# F121-KRAB = F121-KRAB (artificial (human zinc finger domains)); experiment: cell_activity; luciferase reporter with native VEGF promoter -950 to +450, 293 cells, 30 ng plasmid; details: tags: HA, NLS
# Procedure: (§1) Human embryonic kidney 293 cells were maintained in Dulbecco's modified Eagle medium (DMEM) supplemented with 100 units/ml penicillin, 100 μg/ml streptomycin, and 10% fetal bovine serum (FBS). For the luciferase assay, 10⁴ cells/well were pre-cultured in a 96-well plate. Using a LIPOFECTAMINE™ transfection kit (Life Technologies, Rockville, Md.), 293 cells were transfected with 25 ng of a reporter plasmid in which the native VEGF-A promoter was fused to the luciferase gene in pGL3-basic (Promega), and 25 ng of a plasmid encoding a zinc finger protein. After 48 h of incubation, luciferase activity was measured with a DUAL LUCIFERASE™ assay kit (Promega) using a TD-20/20 luminometer (Turner Designs Inc., Sunnyvale, Calif.).
# (§2) 293 cells were transfected with luciferase reporter plasmid pGL3-VEGFprom containing native human VEGF promoter(−950 to +450 from the transcription initiation site) and 30 ng of pLFD-F121-KRAB or pLFD-F109-KRAB. Luciferase activity was measured as described. Fold repression values were calculated by normalizing the firefly luciferase activity against the renilla luciferase activity and the result was compared with that of the control wherein 293 cells were transfected with the control vector pLFD and the reporter plasmid.
# F2604 = F2604 (artificial (human zinc finger domains)); experiment: cell_activity; endogenous VEGF-A conc., unit not given; parental vector 400; details: tags: HA, NLS, p65
# F2633 = F2633 (artificial (human zinc finger domains)); experiment: as above; details: tags: HA, NLS, p65
# F109-KRAB = F109-KRAB (artificial (human zinc finger domains)); experiment: cell_activity; luciferase reporter with native VEGF promoter -950 to +450, 293 cells, 30 ng plasmid; details: tags: HA, NLS
# Procedure: as §1, §2
# F2650 = F2650 (artificial (human zinc finger domains)); experiment: cell_activity; endogenous VEGF-A conc., unit not given; parental vector 400; details: tags: HA, NLS, p65
# F2644 = F2644 (artificial (human zinc finger domains)); experiment: as above; details: tags: HA, NLS, p65
# F475 = F475 (artificial (human zinc finger domains)); experiment: as above
# F2605 = F2605 (artificial (human zinc finger domains)); experiment: as above; details: tags: HA, NLS, p65
# F2646 = F2646 (artificial (human zinc finger domains)); experiment: as above; details: tags: HA, NLS, p65
# F2646 (artificial (human zinc finger domains)), sequence (chain, as listed by the source): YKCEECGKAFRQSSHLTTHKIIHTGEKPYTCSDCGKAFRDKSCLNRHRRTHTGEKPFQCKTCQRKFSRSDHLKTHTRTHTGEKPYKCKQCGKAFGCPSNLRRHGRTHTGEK
# F2615 (artificial (human zinc finger domains)), sequence (chain, as listed by the source): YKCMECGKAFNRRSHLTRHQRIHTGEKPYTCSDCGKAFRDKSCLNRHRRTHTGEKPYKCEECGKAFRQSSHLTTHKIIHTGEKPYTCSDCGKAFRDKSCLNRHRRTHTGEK
# F2679 (artificial (human zinc finger domains)), sequence (chain, as listed by the source): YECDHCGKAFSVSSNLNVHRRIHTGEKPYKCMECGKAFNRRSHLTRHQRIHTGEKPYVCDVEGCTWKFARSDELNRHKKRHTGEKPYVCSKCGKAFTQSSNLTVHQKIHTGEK
# F2633 (artificial (human zinc finger domains)), sequence (chain, as listed by the source): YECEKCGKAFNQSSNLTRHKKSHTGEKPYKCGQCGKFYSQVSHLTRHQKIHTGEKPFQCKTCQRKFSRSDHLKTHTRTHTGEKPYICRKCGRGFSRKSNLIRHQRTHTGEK
# F121-KRAB (artificial (human zinc finger domains)), sequence (chain, as listed by the source): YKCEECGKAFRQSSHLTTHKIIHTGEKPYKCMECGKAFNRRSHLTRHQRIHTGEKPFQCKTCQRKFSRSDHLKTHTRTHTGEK
# F2605 (artificial (human zinc finger domains)), sequence (chain, as listed by the source): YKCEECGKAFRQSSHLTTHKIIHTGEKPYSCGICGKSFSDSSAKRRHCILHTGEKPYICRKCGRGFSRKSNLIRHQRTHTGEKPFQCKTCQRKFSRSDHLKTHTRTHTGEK
# F2612 (artificial (human zinc finger domains)), sequence (chain, as listed by the source): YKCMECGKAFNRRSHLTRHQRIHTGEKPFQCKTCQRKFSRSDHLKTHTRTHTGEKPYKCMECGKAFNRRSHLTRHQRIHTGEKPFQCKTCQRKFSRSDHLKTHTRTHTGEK
# F475 (artificial (human zinc finger domains)), sequence (chain, as listed by the source): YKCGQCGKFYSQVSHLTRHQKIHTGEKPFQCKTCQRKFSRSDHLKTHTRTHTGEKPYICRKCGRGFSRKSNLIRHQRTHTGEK
# F2638 (artificial (human zinc finger domains)), sequence (chain, as listed by the source): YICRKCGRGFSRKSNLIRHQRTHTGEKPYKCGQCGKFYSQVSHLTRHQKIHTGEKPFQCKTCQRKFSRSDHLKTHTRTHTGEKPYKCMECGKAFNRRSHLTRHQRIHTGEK
# F109-KRAB (artificial (human zinc finger domains)), sequence (chain, as listed by the source): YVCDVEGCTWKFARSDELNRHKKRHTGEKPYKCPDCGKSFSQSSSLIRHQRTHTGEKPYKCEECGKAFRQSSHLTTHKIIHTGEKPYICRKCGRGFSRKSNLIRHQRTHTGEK
# F2644 (artificial (human zinc finger domains)), sequence (chain, as listed by the source): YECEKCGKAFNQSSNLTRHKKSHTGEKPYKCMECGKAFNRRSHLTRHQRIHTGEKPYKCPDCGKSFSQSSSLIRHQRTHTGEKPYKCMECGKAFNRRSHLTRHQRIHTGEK
# F2634 (artificial (human zinc finger domains)), sequence (chain, as listed by the source): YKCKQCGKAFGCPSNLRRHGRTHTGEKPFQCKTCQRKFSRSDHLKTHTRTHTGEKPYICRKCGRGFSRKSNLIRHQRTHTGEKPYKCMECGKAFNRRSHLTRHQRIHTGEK
# F2650 (artificial (human zinc finger domains)), sequence (chain, as listed by the source): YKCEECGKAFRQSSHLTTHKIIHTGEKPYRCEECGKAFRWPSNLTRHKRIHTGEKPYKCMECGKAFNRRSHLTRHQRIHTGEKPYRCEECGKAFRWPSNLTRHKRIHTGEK
# F2604 (artificial (human zinc finger domains)), sequence (chain, as listed by the source): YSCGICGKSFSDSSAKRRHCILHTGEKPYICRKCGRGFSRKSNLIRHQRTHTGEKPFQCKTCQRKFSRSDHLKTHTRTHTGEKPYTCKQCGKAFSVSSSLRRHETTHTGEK
# F2610 (artificial (human zinc finger domains)), sequence (chain, as listed by the source): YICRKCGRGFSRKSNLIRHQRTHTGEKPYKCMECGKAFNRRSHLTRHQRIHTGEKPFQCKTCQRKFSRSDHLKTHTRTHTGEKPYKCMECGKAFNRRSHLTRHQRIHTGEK
# F2607 (artificial (human zinc finger domains)), sequence (chain, as listed by the source): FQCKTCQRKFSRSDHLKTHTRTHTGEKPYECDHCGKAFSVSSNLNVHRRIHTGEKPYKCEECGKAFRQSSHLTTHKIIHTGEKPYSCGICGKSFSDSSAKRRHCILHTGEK
# F480 (artificial (human zinc finger domains)), sequence (chain, as listed by the source): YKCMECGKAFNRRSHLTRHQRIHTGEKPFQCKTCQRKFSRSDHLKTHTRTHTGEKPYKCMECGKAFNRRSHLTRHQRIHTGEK
binder,measurement,setting,value
B1,activity,F480,3100
B2,activity,F2615,2700
B3,activity,F2610,2300
B4,activity,F2634,2100
B5,activity,F2612,2000 pg/mL
B6,activity,F2638,1900
B7,activity,F2607,1600 pg/mL
B8,activity,F2679,1500 pg/mL
B9,activity,F121,1300 pg/mL
same,activity,F121-KRAB,8.7 fold repression
B10,activity,F2604,1000
B11,activity,F2633,4500
B12,activity,F109-KRAB,6.1 fold repression
B13,activity,F2650,4400
B14,activity,F2644,4200
B15,activity,F475,4150
B16,activity,F2605,3700
B17,activity,F2646,3400
